The record followed here is patent publication US20220119450A1 (UNIVERSITY OF TARTU, published 2022).

Assay [1] concerns the target T1, recombinant His-tagged tenascin-C C domain (TNC-C).
T1 construct: 112 amino acids, expressed in E. coli from pET28a+ with N-terminal His-tag
T1 chain: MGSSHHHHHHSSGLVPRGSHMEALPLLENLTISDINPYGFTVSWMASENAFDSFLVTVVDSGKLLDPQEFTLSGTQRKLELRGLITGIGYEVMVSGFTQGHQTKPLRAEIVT
In words: binding specificity, T7 peptide phage. As to the method:
(§1) To identify bispecific peptides that interact with both TNC-C and FN-EDB, cross screens were performed on both targets. During the first round of selection, microtiter plates coated with 20 μg/ml recombinant purified TNC-C were blocked with PBS containing 1% bovine serum albumin (BSA), followed by incubation with 5×10⁸ pfu of phages in PBS at 4° C. overnight, by washes to remove background, and by phage rescue and amplification in BLT5403 strain of E. coli (Novagen, EMD Biosciences, MA, USA) (Teesalu et al., Methods Enzymol. 503:35-56 (2012)). The following rounds of biopanning were carried on Ni-NTA Magnetic Agarose Beads (QIAGEN, Hilden, Germany) coated with hexahistidine-tagged FN-EDB (3 μg/μl beads) at room temperature. After 5 rounds of selection, a set of random clones was sequenced, and individual peptide-phage clones and control (G7 peptide-displaying or insertless) phages were incubated with FN-EDB and TNC-C-coated magnetic beads. RPARPAR phage (SEQ ID NO:5) and His-tagged NRP-1 b1b2 domain were used as positive control (Teesalu et al., Proc. Natl. Acad. Sci. U.S.A 106:16157-62 (2009)). To address the specificity of the peptide phage binding to the FN-EDB and TNC-C, the protein-coated beads were pre-incubated with 20 μg/ml blocking rabbit polyclonal antibodies.
(§2) Immobilized FAM-PL1 was probed with recombinant His-tagged EDB and TNC-C (or control BSA), followed by sequential incubation with rabbit anti-His-tag primary antibody, secondary goat anti-rabbit HRP antibody and a chromogenic peroxidase reaction.

The target in assay [2] is T2, recombinant His-tagged fibronectin extra domain B (FN-EDB).
T2 construct: 112 amino acids, expressed in E. coli from pET28a+ with N-terminal His-tag; also called fibronectin EDB-domain
In words: binding specificity, T7 peptide phage. On the procedure:
as §1, §2

Assay [3] addresses T3, recombinant His-tagged Neuropilin-1 b1b2 domain (UniProt O14786 273-586, limits assumed).
T3 construct: domain: b1b2; also called NRP-1; NRP1
T3 sequence (looked up): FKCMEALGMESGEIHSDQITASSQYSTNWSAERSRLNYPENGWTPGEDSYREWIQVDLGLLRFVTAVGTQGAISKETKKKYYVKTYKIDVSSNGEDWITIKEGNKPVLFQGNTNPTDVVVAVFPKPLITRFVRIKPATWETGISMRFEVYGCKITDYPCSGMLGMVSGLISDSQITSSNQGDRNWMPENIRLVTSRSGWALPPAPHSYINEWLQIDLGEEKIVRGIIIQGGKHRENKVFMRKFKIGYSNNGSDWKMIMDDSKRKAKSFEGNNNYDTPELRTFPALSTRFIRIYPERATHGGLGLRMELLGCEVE
Nature of the assay: T7 phage binding to protein-coated magnetic beads.

The target of assay [4] is T1, recombinant His-tagged tenascin-C C …. In words: T7 phage binding to recombinant protein.
Assay [5] addresses T2, recombinant His-tagged fibronectin …. In words: T7 phage binding to recombinant protein.
Assay [6] concerns the target T3, recombinant His-tagged Neuropilin-1 …. Nature of the assay: T7 phage binding to recombinant NRP-1 b1b2.

No end group written: not given here.

Turning to PPRRGLIKLKTS (not fully specified (N-terminus); also: displayed on T7 phage capsid protein, also called PL1 phage) [PL1 peptide displayed on T7 phage (PPRRGLIKLKTS)], the binding result in assay [1] is listed as “binds”; in assay [2], “binds”; in assay [3] it was “no binding”.
For AGRGRLVR (also: displayed on T7 phage, fusion site not given here, also called PL3 phage; PL-3 phage) [PL3 peptide displayed on T7 phage (AGRGRLVR)], the figures for the binding result in assay [4] and in assay [5] were “binds” and “no binding”, respectively. For the same molecule, the “fold more than heptaglycine control phage” value in assay [6] was ~200 fold.
